# B1: mouse Rpa43 (43 kDa subunit of RNA polymerase I), wild type (other, UniProt Q78WZ7 1-330, looked up)
# chain: MAAGSVESQRSQAASERPVAGQAGVLPCLELPSYAAACALVGSRYSCLVAAPHRRHIALSPRYLSRKRTGIREQLDAELLRYSESLLGVPIAYDNIRVVGELGDIYDDQGHIHLNIEADFVIFCPEPGQTLMGTVNKVSSSHIGCLVHGCFNASIPKPEQMSYEEWQTLEIHVGDELEFDVFRLDSDSAGVFCIRGKLSTTSLQLKHSAVSEDVAETVVEEVVEKTPKKKKKKKDKDTDTCGTVDSVTEVADVTDVTPQEETDIPCSDNVNDFFEEEPKKKKKKKKRHQEDQDPIFQASDSSGYQSDHNKKKKKRKHSEEANFESPKKRQ
# notes: also called mRPA43; wild type Rpa43
# Key:
# human Rrn3 = molecular target: T1, human Rrn3 (human, UniProt Q9NYV6 1-651, limits assumed); assay: yeast two-hybrid
# T1 construct: Two-hybrid fusion partner not described; also called hRrn3
# T1 sequence (Q9NYV6 whole entry, the tested form may be a part): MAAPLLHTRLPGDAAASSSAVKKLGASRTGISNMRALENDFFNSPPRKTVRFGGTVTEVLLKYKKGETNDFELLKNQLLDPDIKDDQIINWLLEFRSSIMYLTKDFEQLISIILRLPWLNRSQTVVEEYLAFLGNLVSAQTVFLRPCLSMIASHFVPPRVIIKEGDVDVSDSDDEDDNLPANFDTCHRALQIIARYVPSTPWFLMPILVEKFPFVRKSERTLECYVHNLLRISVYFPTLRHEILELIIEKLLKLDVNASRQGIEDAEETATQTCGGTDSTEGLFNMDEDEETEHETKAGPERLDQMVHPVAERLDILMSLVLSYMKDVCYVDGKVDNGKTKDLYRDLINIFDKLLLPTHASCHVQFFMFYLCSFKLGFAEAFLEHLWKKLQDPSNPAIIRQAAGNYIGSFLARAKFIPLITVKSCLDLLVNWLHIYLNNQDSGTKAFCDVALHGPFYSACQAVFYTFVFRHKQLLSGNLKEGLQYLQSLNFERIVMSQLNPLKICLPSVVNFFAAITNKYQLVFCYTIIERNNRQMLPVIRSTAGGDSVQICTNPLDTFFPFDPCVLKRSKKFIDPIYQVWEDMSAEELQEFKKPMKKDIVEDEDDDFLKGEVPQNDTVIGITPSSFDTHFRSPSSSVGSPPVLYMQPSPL
# mouse Rrn3 = molecular target: T2, mouse Rrn3 (mouse, UniProt B2RS91 1-656, limits assumed); assay: yeast two-hybrid
# T2 construct: Two-hybrid fusion partner not described; also called mRrn3
# T2 sequence (B2RS91 whole entry, the tested form may be a part): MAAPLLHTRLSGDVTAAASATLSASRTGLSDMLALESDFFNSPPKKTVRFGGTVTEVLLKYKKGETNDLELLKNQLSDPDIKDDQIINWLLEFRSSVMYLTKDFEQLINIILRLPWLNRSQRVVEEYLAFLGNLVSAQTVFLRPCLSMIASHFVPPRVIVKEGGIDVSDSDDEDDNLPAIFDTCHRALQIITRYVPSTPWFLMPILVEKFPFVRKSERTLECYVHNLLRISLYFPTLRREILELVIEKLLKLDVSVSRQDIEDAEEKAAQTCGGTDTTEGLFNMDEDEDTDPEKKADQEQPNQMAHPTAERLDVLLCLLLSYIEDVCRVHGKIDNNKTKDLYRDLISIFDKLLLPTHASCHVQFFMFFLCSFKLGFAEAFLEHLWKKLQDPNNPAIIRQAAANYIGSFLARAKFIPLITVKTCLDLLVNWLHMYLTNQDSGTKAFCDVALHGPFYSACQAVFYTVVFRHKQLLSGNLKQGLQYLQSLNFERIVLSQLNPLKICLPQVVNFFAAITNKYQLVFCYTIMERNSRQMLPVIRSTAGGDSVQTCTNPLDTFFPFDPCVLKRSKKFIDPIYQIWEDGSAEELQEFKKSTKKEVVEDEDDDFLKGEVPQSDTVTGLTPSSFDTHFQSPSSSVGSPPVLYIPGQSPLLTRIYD
binder,measurement,setting,value
B1,binding result,human Rrn3,binds
same,binding result,mouse Rrn3,binds

# — patent US20130143318A1 (BOARD OF REGENTS OF THE UNIVERSITY OF OKLAHOMA, published 2013)
